Test results reported in patent US7794711B2, “Agent for treating chondroma and chondrosarcoma” (Chugai Seiyaku Kabushiki Kaisha, priority 2002, dated 2010).
One block for each molecule: values may come before it.

Legend:
[1] = tested on: Human chondrosarcoma cell HTB-94; experiment: Viability of cells (Premix WST-1 Cell Proliferation Assay System); assay type: cell-based; conditions: 20 μM, 2 hours before the addition of anti-PTHrP MoAb (FIG. 2)
Description: Human chondrosarcoma cell HTB-94 (ATCC) was suspended in Dulbecco's Modified Eagle's Medium (DMEM) containing 10% FBS, L-glutamine, penicillin-streptomycin (all are available from GIBCO-BRL), and was cultured and proliferated at 37° C. under 5% CO2 wet condition.
That is, reduction ratio of tetrazolium salt (WST-1) by viable cells was determined from the increase in OD450, and it was considered as the index of the number of viable cells.

[2] = tested on: HTB-94 cells; experiment: DNA fragmentation assay; assay type: cell-based, human; conditions: two days
Description: That is, the cells were dissolved in a dissolution buffer, DNA was isolated, extracted with an organic solvent and ethanol precipitation was carried out. The precipitated DNA was centrifuged (12,000 g, 10 min) and then washed with 80% ethanol, and dissolved in 30 μl of TE buffer. Each sample (10 μl) was subjected to electrophoresis on a 1.2% agarose gel, and stained with ethidium bromide.

[3] = molecular target: T1, PTHrP (1-34) (Homo sapiens, UniProt P12272); experiment: Screening of hybridomas by solid phase RIA of culture supernatant; assay type: binding; design: purchased Peninsula; conditions: hybridoma culture supernatant
Description: Hybridomas #23-57-154 and #23-57-137-1 which produce monoclonal antibody to human PTHrP (1-34) were produced as follows (Sato, K. et al., J. Bone Miner. Res. 8, 849-860, 1993). The amino acid sequence of human PTHrP (1-34) is shown in the SEQ ID No. 75.
Screening of hybridomas was performed by measuring and selecting the existence of a PTHrP recognizing antibody by applying solid phase RIA method to the culture supernatant of the wells where growth was recognized in HAT culture medium. Hybridomas were collected from the wells where binding ability with an antibody was recognized, suspended to the culture medium prepared by adding OPI-supplement (Sigma) to the RPMI-1640 culture medium containing FCS 15%, and the hybridomas was simplified by the limiting dilution method.

[4] = tested on: HTB-94 cells; experiment: Immunocytochemistry using anti-collagen type X antibody; assay type: cell-based, human; conditions: particularly at high concentration, seven days
Description: Immunocytochemistry was performed by streptavidin-peroxidase method using histofine SAB-PO kit ([…]). […] Subsequently, the cells were transferred to 3% H2O2 methanol to block endogenous peroxidase activity, washed with PBS (pH 7.2), and then blocked with PBS containing normal 10% serum (secondary antibody) of the congeneric origin in order to make the background minimum and incubated with anti-collagen type X antibody (primary antibody) at room temperature for 2 hours. Afterwards the cells were washed with PBS, incubated with the secondary antibody at room temperature in a wet chamber for 20 minutes, and incubated with peroxidase conjugated streptavidin ([…]) for 20 minutes under the same conditions. Finally, coloring reaction was performed with 3,3-diaminobenzidine tetrahydrochloride (DAB) reagent (Dojindo). The cells were counterstained with hematoxylin and microscopically observed at 200-fold and 400-fold magnification.

[5] = tested on: HTB-94 cells; experiment: RT-PCR; assay type: cell-based, human; conditions: 100 μg/ml, two days, vs control
Description: PCR of cDNA was performed using Ready-to-Go PCR beads (Pharmacia) and primers for human Bcl-2, Bax, Ihh, ColX (α1) and β-actin amplification (12.5 pmol(s) each).
Amplification was performed using Perkin-Elmer/Cetus DNA Thermal Cycler (TAKARA SHUZO) on the conditions of 30 cycles each of 94° C., 0.5 min; 55° C., 0.5 min; 72° C., 0.5 min and last extension reaction at 72° C. for 7 minutes.
Electrophoresis of the obtained PCR product (10 μL) was carried out on a 4% agarose gel, and stained and observed with ethidium bromide.

[6] = tested on: HTB-94 cells; experiment: TUNEL staining; assay type: cell-based, human; conditions: two days
Description: TUNEL staining was performed using Apoptag Peroxidase Kit (Intergen Company). […] Subsequently, the cells were incubated with a TdT reaction mixture (TdT solution+[…] and dATP) at 37° C. for 60 minutes, and further incubated with peroxidase conjugated anti-dioxygenin antibody at room temperature for 30 minutes. The cells were stained with DAB and then counterstained with Mayer's hematoxylin and microscopically observed at 200-fold, 400-fold and 600-fold magnification.

[7] = tested on: HTB-94 cells; experiment: Western blotting of HTB-94 cell lysates; assay type: cell-based, human
Description: In the experiment with regard to the following collagen type-X, the cells were treated by anti-PTHrP MoAb for further five days (for total seven days). All the cell lysates (50 μg as protein) of the above-mentioned cells were separated by SDS-PAGE using 12% gel and blotted on a nitrocellulose film (Bio-Rad Laboratories). The blocked film was incubated together with an anti-procaspase-3 antibody (Wako Pure Chemical) diluted to 1/100, an anti-PARP antibody, an anti-Bcl-2 antibody and an anti-Bax antibody (both from Santa Cruz Biotechnology), an anti-collagen type X antibody (Calbiochem-Novabiochem Corporation) and a peroxidase conjugated secondary antibody (Amersham) diluted to 1/1000.
Here, PARP (poly(ADP-ribose) polymerase) is an enzyme important for the survival in a cell, and caspase-3 causes cleavage of this PARP.
Detection was performed using ECL Western blotting detection system (Amersham). Each blot was further re-detected by ECL using anti-o-actin antibody (Santa Cruz Biotechnology) and the peroxidase conjugated secondary antibody.

[8] = molecular target: T1, PTHrP (1-34); experiment: ELISA measurement of antigen binding ability; design: coated with 100 μl of human PTHrP(1-34) (Peptide Research Institute); purchased Peptide Research Institute; conditions: expressed in COS-7 cells; H chain humanized version a
Description: The ELISA plate for antigen binding measurement was prepared as follows. Each well of a 96 well plate for ELISA was coated with 100 μl of human PTHrP(1-34) (Peptide Research Institute) adjusted to 1 μg/ml concentration by the coating buffer. […] After the plate was incubated at room temperature and washed with PBS-Tween20, 100 μl of alkaline phosphatase (TAGO) conjugated goat anti-man IgG antibody was added. After the plate was incubated at room temperature and washed with PBS-Tween20, 1 mg/ml of a substrate solution (Sigma104, p-nitrophenylphosphate, SIGMA) was added, and, next, 405 nm absorption was measured with a micro plate reader (Bio Rad).
The ELISA plate for antigen binding measurement was prepared as follows. Each well of a 96 well plate for ELISA was coated with 100 μl of human PTHrP(1-34) adjusted to 1 μg/ml concentration by the coating buffer. After blocking with 200 μl of the dilution buffer, the culture supernatant of the COS-7 cells in which hybrid antibody or humanized antibody was expressed or the purified hybrid antibody or the humanized antibody was stepwise diluted and added to each well. After the plate was incubated at room temperature and washed with PBS-Tween20, 100 μl of alkaline phosphatase (TAGO) conjugated goat anti-man IgG antibody was added. After the plate was incubated at room temperature and washed with PBS-Tween20, 1 mg/ml of a substrate solution (Sigma104, p-nitrophenylphosphate, SIGMA) was added, and 405 nm absorption was then measured on a micro plate reader (Bio Rad).

[9] = 0, 10, 30, 50, 100, and 200 μg/ml, two days

Molecule: DEVD-CHO
- effect of caspase-3 inhibitor on the effect of anti-PTHrP MoAb on cell viability [1]: inhibited the effect of this anti-PTHrP MoAb

- binding ability with PTHrP (1-34) [3]: strong binding ability
B1: anti-PTHrP MoAb: mouse monoclonal antibody to human PTHrP (1-34) prepared from hybridoma #23-57-137-1 (FERM BP-5631) (antibody, V domains shown)
VH: EVQLVESGGDLVKPGGSLKLSCAASGFTFSSYGMSWIRQTPDKRLEWVATISSGGSYTYYPDSVKGRFTISRDNAKNTLYLQMSSLKSEDTAMFYCARQTTMTYFAYWGQGTLVTVSA
VL: QLVLTQSSSASFSLGASAKLTCTLSSQHSTYTIEWYQQQPLKPPKYVMDLKQDGSHSTGDGIPDRFSGSSSGADRYLSISNIQPEDEAMYICGVGDTIKEQFVYVFGGGTKVTVLGQP
- fragmentation of DNA in nucleosome specific to apoptosis ([2]; 10 μg/ml): observed
- fragmentation of DNA in nucleosome specific to apoptosis ([2]; 200 μg/ml): observed
- cell morphology (differentiation) [4]: a number of cells which roundly expanded were observed
- amount of expression of Bax (mRNA) [5]: increased
- amount of expression of Bcl-2 (mRNA) [5]: decreased
- frequency of appearance of cells in apoptosis (stained brown) ([6]; 0, 10, 100, or 200 μg/ml): increased depending on the concentration
- morphological changes characteristic of apoptosis ([6]; after treatment): contraction and round outline were also recognized
- 85 kDa fragment of PARP [7, 9]: increased depending on the concentration
- Bax (protein) [7, 9]: increased as the concentration of anti-PTHrP MoAb increased
- Bcl-2 (protein) [7, 9]: decreased as the concentration of anti-PTHrP MoAb increased
- procaspase-3 (35 kDa) ([7]; 100 μg/ml, two days): decreased
- procaspase-3 (35 kDa) ([7]; 200 μg/ml, two days): decreased
- anti-PTHrP MoAb concentration at maximum collagen type X ([7]; total seven days): 50 µg/mL
- collagen type X (protein) ([7]; treated vs untreated cells, total seven days): more collagen type X in the cells treated with Anti-PTHrP MoAb than in untreated cells

B2: m/hMBC1Laλ: hybrid antibody: L chain mouse FR1, 2/human FR3, 4 (version a); humanized H chain (antibody, V domains shown)
VH: QVQLVESGGGVVQPGRSLRLSCAASGFTFSSYGMSWVRQAPGKGLEWVATISSGGSYTYYPDSVKGRFTISRDNSKNTLYLQMNSLRAEDTAVYYCARQTTMTYFAYWGQGTLVTVSS
VL: QLVLTQSSSASFSLGASAKLTCTLSSQHSTYTIEWYQQQPLKPPKYVMDLKQDGSHSTGDGIPDRFSGSSSGAERYLTISSLQSEDEADYYCGVGDTIKEQFVYVFGGGTKLTVL
- PTHrP binding ability compared with chimeric antibody [8]: equivalent to chimera #23-57-137-1 antibody

B3: hmmMBC1L(λ): hybrid antibody: L chain human FR1/mouse FR2, 3, 4; humanized H chain (antibody, V domains shown)
VH: QVQLVESGGGVVQPGRSLRLSCAASGFTFSSYGMSWVRQAPGKGLEWVATISSGGSYTYYPDSVKGRFTISRDNSKNTLYLQMNSLRAEDTAVYYCARQTTMTYFAYWGQGTLVTVSS
VL: QLVLTQSPSASASLGASVKLTCTLSSQHSTYTIEWYQQQPLKPPKYVMDLKQDGSHSTGDGIPDRFSGSSSGADRYLSISNIQPEDEAMYICGVGDTIKEQFVYVFGGGTKVTVL
- PTHrP binding ability compared with chimeric antibody [8]: equivalent to chimera #23-57-137-1 antibody

B4: m/hMBC1Ldλ: hybrid antibody: L chain mouse FR1, 2/human FR3, 4 (version d, 87 isoleucine); humanized H chain (antibody, V domains shown)
VH: QVQLVESGGGVVQPGRSLRLSCAASGFTFSSYGMSWVRQAPGKGLEWVATISSGGSYTYYPDSVKGRFTISRDNSKNTLYLQMNSLRAEDTAVYYCARQTTMTYFAYWGQGTLVTVSS
VL: QLVLTQSSSASFSLGASAKLTCTLSSQHSTYTIEWYQQQPLKPPKYVMDLKQDGSHSTGDGIPDRFSGSSSGAERYLTISSLQSEDEADYICGVGDTIKEQFVYVFGGGTKLTVL
- PTHrP binding ability compared with chimeric antibody [8]: equivalent to chimera #23-57-137-1 antibody
